Test results taken from article PMC11081419, “Structural basis of chemokine recognition by the class A3 tick evasin EVA‐ACA1001” (Protein Science : A Publication of the Protein Society, 2024).

B1: EVA‐ACA1001 (untagged, for crystallization and cell assays) (natural protein)
chain: ENGEGTTQPDYDNSTDYYNYEDFKCTCPAPHLNNTNGTVMKPIGCYYTCNVTRCTAPDTYPCYNLTEHQAKNLTTSPTTLCAVGNCDHGICVPNGTKELCFKAPNLEE
B2: CCL16 (ligand, human, UniProt O15467 24-120, looked up)
chain: QPKVPEWVNTPSTCCLKYYEKVLPRRLVVGYRKALNCHLPAIIFVTKRNREVCTNPNDDWVQEYIKDPNLPLLPTRNLSTVKIITAKNGQPQLLNSQ
notes: CCL16, human CC chemokine; The E. coli preparation is described for the crystal; also called human chemokine CCL16; not shown: His6, N-terminal, cleaved; SUMO, N-terminal, cleaved
B3: CCL7 (ligand)
chain: not shown
notes: CCL7, human CC chemokine
B4: CCL18 (ligand, human, UniProt P55774 21-89, looked up)
chain: AQVGTNKELCCLVYTSWQIPQKFIVDYSETSPQCPKPGVILLTKRGRQICADPNKKWVQKYISDLKLNA
notes: CCL18, human CC chemokine
B5: CCL15 (ligand)
chain: QFTNDAETELMMSKLPLENPVVLNSFHFAADCCTSYISQSIPCSLMKSYFETSSECSKPGVIFLTKKGRQVCAKPSGPGVQDCMKKLKPYSI
B6: CCL24 (ligand, human, UniProt O00175 27-119, looked up)
chain: VVIPSPCCMFFVSKRIPENRVVSYQLSSRSTCLKAGVIFTTKKGQQFCGDPKQEWVQRYMKNLDAKQKKASPRARAVAVKGPVQRYPGNQTTC
notes: CCL24, human CC chemokine
B7: CCL26 (ligand, human, UniProt Q9Y258 24-94, looked up)
chain: TRGSDISKTCCFQYSHKPLPWTWVRSYEFTSNSCSQRAVIFTTKRGKKVCTHPRKKWVQKYISLLKTPKQL
notes: CCL26, human CC chemokine
B8: CCL13 (ligand)
chain: not shown
notes: CCL13, human CC chemokine
B9: CCL4 (ligand, human, UniProt P13236 24-92, looked up)
chain: APMGSDPPTACCFSYTARKLPRNFVVDYYETSSLCSQPAVVFQTKRSKQVCADPSESWVQEYVYDLELN
notes: CCL4, human CC chemokine
B10: CCL23 (ligand)
chain: RVTKDAETEFMMSKLPLENPVLLDRFHATSADCCISYTPRSIPCSLLESYFETNSECSKPGVIFLTKKGRRFCANPSDKQVQVCMRMLKLDTRIKTRKN
B11: CCL21 (ligand, human, UniProt O00585 24-134, looked up)
chain: SDGGAQDCCLKYSQRKIPAKVVRSYRKQEPSLGCSIPAILFLPRKRSQAELCADPKELWVQQLMQHLDKTPSPQKPAQGCRKDRGASKTGKKGKGSKGCKRTERSQTPKGP
notes: CCL21, human CC chemokine
B12: CCL1 (ligand, human, UniProt P22362 24-96, looked up)
chain: KSMQVPFSRCCFSFAEQEIPLRAILCYRNTSSICSNEGLIFKLKRGKEACALDTVGWVQRHRKMLRHCPSKRK
notes: CCL1, human CC chemokine
B13: CCL17 (ligand, human, UniProt Q92583 24-94, looked up)
chain: ARGTNVGRECCLEYFKGAIPLRKLKTWYQTSEDCSRDAIVFVTVQGRAICSDPNNKRVKNAVKYLQSLERS
notes: CCL17, human CC chemokine
B14: CCL19 (ligand, human, UniProt Q99731 22-98, looked up)
chain: GTNDAEDCCLSVTQKPIPGYIVRNFHYLLIKDGCRVPAVVFTTLRGRQLCAPPDQPWVERIIQRLQRTSAKMKRRSS
notes: CCL19, human CC chemokine
B15: CCL8 (ligand, human, UniProt P80075 24-99, looked up)
chain: QPDSVSIPITCCFNVINRKIPIQRLESYTRITNIQCPKEAVIFKTKRGKEVCADPKERWVRDSMKHLDQIFQNLKP
notes: CCL8, human CC chemokine
B16: CCL3 (ligand, human, UniProt P10147 24-92, looked up)
chain: SLAADTPTACCFSYTSRQIPQNFIADYFETSSQCSKPGVIFLTKRSRQVCADPSEEWVQKYVSDLELSA
notes: CCL3, human CC chemokine
B17: CCL22 (ligand, human, UniProt O00626 25-93, looked up)
chain: GPYGANMEDSVCCRDYVRYRLPLRVVKHFYWTSDSCPRPGVVLLTFRDKEICADPRVPWVKMILNKLSQ
notes: CCL22, human CC chemokine
B18: CCL5 (ligand, human, UniProt P13501 24-91, looked up)
chain: SPYSSDTTPCCFAYIARPLPRAHIKEYFYTSGKCSNPAVVFVTRKNRQVCANPEKKWVREYINSLEMS
notes: CCL5, human CC chemokine
B19: CCL11 (ligand)
chain: not shown
notes: CCL11, human CC chemokine
B20: CCL27 (ligand, human, UniProt Q9Y4X3 25-112, looked up)
chain: FLLPPSTACCTQLYRKPLSDKLLRKVIQVELQEADGDCHLQAFVLHLAQRSICIHPQNPSLSQWFEHQERKLHGTLPKLNFGMLRKMG
notes: CCL27, human CC chemokine
B21: EVA‐ACA1001, Avi-tagged and biotinylated (SPR construct) (natural protein)
chain: B1 chain
modifications: biotin on the AVI tag (BirA ligase)
notes: EVA-ACA1001 (Evasin P991), class A3 evasin of Amblyomma cajennense; mass of the untagged protein 11,920 Da (calculated 11,921 Da with five disulfides); also called Evasin P991; full‐length EVA‐ACA1001; not shown: His6, N-terminal, cleaved; SUMO, N-terminal, cleaved

Target: B15
Experiment: cell-based or functional assay
Conditions: not given

Question: Which “IC50 of EVA-ACA1001 for inhibition of CCL8-stimulated activation of CCR5 (cAMP assay); blocks CCL8 with CCR5” value does the source give for B1 here?
Answer: The value was ~189 nM.

Target: B15
Experiment: cell-based or functional assay
Conditions: not given
Remark: another data set of the same source

Question: How did the “IC50 of EVA-ACA1001 for inhibition of CCL8 (100 nM)-stimulated activation of CCR5 (inhibition of forskolin-induced cAMP, CAMYEL BRET biosensor, Flp-In-CHO cells); blocks CCL8 with CCR5” value turn out when B1 was run?
Answer: Its value is 188 nM.

Question: And the “pIC50 of EVA-ACA1001 for inhibition of CCL8 (100 nM)-stimulated activation of CCR5 (inhibition of forskolin-induced cAMP, CAMYEL BRET biosensor, Flp-In-CHO cells); blocks CCL8 with CCR5” value?
Answer: The value was 6.51 -log(IC50, M).

Target: B16
Experiment: cell-based or functional assay
Conditions: not given

Question: How did the “IC50 of EVA-ACA1001 for inhibition of CCL3 (60 nM)-stimulated activation of CCR5 (inhibition of forskolin-induced cAMP, CAMYEL BRET biosensor, Flp-In-CHO cells); blocks CCL3 with CCR5” value turn out when B1 was run?
Answer: The value was 94 nM.

Question: What about the “pIC50 of EVA-ACA1001 for inhibition of CCL3 (60 nM)-stimulated activation of CCR5 (inhibition of forskolin-induced cAMP, CAMYEL BRET biosensor, Flp-In-CHO cells); blocks CCL3 with CCR5” value of the same binder?
Answer: The value was 7.02 -log(IC50, M).

Target: B9
Experiment: cell-based or functional assay
Conditions: not given

Question: B1 was tested. Which “IC50 of EVA-ACA1001 for inhibition of CCL4 (80 nM)-stimulated activation of CCR5 (inhibition of forskolin-induced cAMP, CAMYEL BRET biosensor, Flp-In-CHO cells); blocks CCL4 with CCR5” value did it give?
Answer: The value was 84 nM.

Question: What about the “pIC50 of EVA-ACA1001 for inhibition of CCL4 (80 nM)-stimulated activation of CCR5 (inhibition of forskolin-induced cAMP, CAMYEL BRET biosensor, Flp-In-CHO cells); blocks CCL4 with CCR5” value of the same binder?
Answer: Its value is 7.07 -log(IC50, M).

Target: B1
Experiment: crystal structure; EVA-ACA1001 and CCL16 mixed 1:1.2, complex purified on Superdex 75 in 10 mM HEPES pH 7.5, 150 mM NaCl; crystals from 0.1 M HEPES pH 7.0, 0.5% v/v Jeff ED-2001, 1.1 M sodium malonate; two complexes per asymmetric unit
Conditions: both partners purified

Question: Which “stoichiometry N” value does the source give for B2 here?
Answer: Its value is 1.

Target: B21
Experiment: SPR; screen at a single chemokine concentration: biotinylated Avi-tagged evasin immobilised on a streptavidin-coated CAPture chip (80 response units); 500 nM chemokine flowed for 240 s at 30 uL/min, 600 s dissociation; 25°C; Biacore T100; 10 mM HEPES, 500 mM NaCl, 0.002% Tween 20, 3 mM EDTA, 1 mg/mL carboxymethyl dextran, pH 7.5
Conditions: both partners purified

Question: Does B3 bind?
Answer: Result: binds

Question: Does B4 bind?
Answer: Result: binds

Target: B21
Experiment: SPR; affinity determination: biotinylated Avi-tagged evasin immobilised on a streptavidin-coated CAPture chip; five two-fold increasing chemokine concentrations (31.25-500 nM), 240 s at 30 uL/min, 600 s dissociation; 1:1 binding model; 25°C; 10 mM HEPES, 500 mM NaCl, 0.002% Tween 20, 3 mM EDTA, 1 mg/mL carboxymethyl dextran, pH 7.5; three independent experiments (Table 1 caption: multiple-cycle kinetics)
Conditions: both partners purified

Question: B5 was tested. Which Kd did it give?
Answer: Its Kd is 107 nM.

Question: And the pKd?
Answer: The pKd was 7.02 -log(Kd, M).

Question: For B6, which Kd is on record?
Answer: Its Kd is 8.9 nM.

Question: What about the pKd of the same binder?
Answer: The pKd was 8.22 -log(Kd, M).

Question: What does the source list for B7?
Answer: Kd: 1.68 nM; pKd: 8.77 -log(Kd, M)

Question: How did the Kd turn out when B8 was run?
Answer: Its Kd is 0.39 nM.

Question: And the pKd?
Answer: The pKd was 9.41 -log(Kd, M).

Question: With B9 as the binder, how does the Kd read?
Answer: The Kd was 1.18 nM.

Question: What about the pKd of the same binder?
Answer: Its pKd is 8.93 -log(Kd, M).

Question: How did the Kd turn out when B10 was run?
Answer: The Kd was 1.17 nM.

Question: What about the pKd of the same binder?
Answer: Its pKd is 8.93 -log(Kd, M).

Question: For B11, which pKd is on record?
Answer: The pKd was 8.19 -log(Kd, M).

Question: How did the Kd turn out when B12 was run?
Answer: The Kd was 21.1 nM.

Question: And the pKd?
Answer: The pKd was 7.71 -log(Kd, M).

Question: With B13 as the binder, how does the Kd read?
Answer: Its Kd is 1.01 nM.

Question: And the pKd?
Answer: Its pKd is 8.99 -log(Kd, M).

Question: With B14 as the binder, how does the Kd read?
Answer: The Kd was 1.31 nM.

Question: And the pKd?
Answer: Its pKd is 8.9 -log(Kd, M).

Question: Which Kd does the source give for B15 here?
Answer: The Kd was 4.76 nM.

Question: And the pKd?
Answer: Its pKd is 8.34 -log(Kd, M).

Question: Which results are given for B16?
Answer: Kd: 1.08 nM; pKd: 8.99 -log(Kd, M)

Question: With B17 as the binder, how does the Kd read?
Answer: The Kd was 1.29 nM.

Question: And the pKd?
Answer: Its pKd is 8.9 -log(Kd, M).

Question: How did the Kd turn out when B18 was run?
Answer: Its Kd is 0.27 nM.

Question: And the pKd?
Answer: Its pKd is 9.55 -log(Kd, M).

Question: Which results are given for B19?
Answer: Kd: 0.38 nM; pKd: 9.49 -log(Kd, M)

Question: What does the source list for B2?
Answer: Kd: 0.54 nM; pKd: 9.34 -log(Kd, M)

Question: B20 was tested. Which Kd did it give?
Answer: The Kd was 84.8 nM.

Question: What about the pKd of the same binder?
Answer: Its pKd is 7.07 -log(Kd, M).

Target: B11
Experiment: as above
Conditions: both partners purified

Question: How did the Kd turn out when B21 was run?
Answer: Its Kd is 6.5 nM.
